Biological target: T1, human FcεRIα (alpha chain of the high affinity IgE receptor FcεRI) (human, UniProt P12319 26-257)
T1 construct: whole, on cells; also called huFcεRIα; hu FcεRIα
T1 sequence (looked up): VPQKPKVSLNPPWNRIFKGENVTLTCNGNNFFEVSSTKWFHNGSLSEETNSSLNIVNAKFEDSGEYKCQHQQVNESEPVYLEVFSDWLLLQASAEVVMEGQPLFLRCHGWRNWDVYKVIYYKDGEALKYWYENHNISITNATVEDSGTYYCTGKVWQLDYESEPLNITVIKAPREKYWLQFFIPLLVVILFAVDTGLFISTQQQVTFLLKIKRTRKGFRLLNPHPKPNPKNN
Assay: not described

binding result: binds
B1: IE7 anti-huFcεRIα mAb (mouse IgG1, hybridoma ATCC PTA-125115) (antibody, V domains shown)
VH: QVQLQESGGDVVKPGGSLKLSCAASGFTFSFYGMSWVRQTPDKKLEWVATISGGGNYTYYPDSVKGRFTISRDNAMNTLYLQMNSLKSEDTAMYYCVRAYYGNWNSYWGQGTLVTVS
VL: DIVMTQTPSSMYASLGERVTITCKASQDINNYLSWFQQKPGRSPKTLIYRANRLMDGVPSRIRGSGSGQDYSLTISSLEYEDMGIYYCLLYNEFPWMFGGGTKLEIKR
notes: Original hybridoma antibody, mouse IgG1; also called mAb IE7

From US20210371519A1 (UNIVERSITY OF CINCINNATI, published 2021)
